Consider two substances from publication PMC2213112.

Read-outs that look alike come from different tables or passages of the source.

In test [1] the target is Recombinant human P-selectin (recombinant ectodomain of P-selectin) (human) (UniProt P16109). Put plainly: SPR.
Test [2] concerns the target P-selectin expressed on Chinese hamster ovary cells (CHO-P) (UniProt P16109). Put plainly: flow cytometry on cells. (In general: A flow cytometer gives signals particle by particle.)
Test [3] has the same target. In words: flow cytometry on cells. The source holds these as a separate data set.
The target is the same in test [4]. Put plainly: flow cytometry on cells. The source holds these as a separate data set.

Regarding “purified C3b (from UniProt P01024 749-1663; P01024 749-1663) (natural protein)”, in test [1], the Kd (usually the concentration at which binding is half-saturated) was determined as 1000 nM.

For “FITC-conjugated purified C3b (from UniProt P01024 749-1663; P01024 749-1663) (natural protein)”, the increase of binding over the sample without calcium or magnesium in test [2] was found to be 55%; in test [3], 63%; in test [4], 33%. The mean fluorescence intensity (MFI) of C3b-FITC in test [4] turned out to be 476.
